Experimental data from patent publication US20230380451A1, “MEANS AND METHODS TO DETOXIFY MYCOTOXINS” (priority 2020, published 2023).

Experiments:
[1] = Storage stability at different pH values, residual DON transformation activity; type: biochemical; details: storage at 30° C.
Procedure: (§1) To determine the transformation of DON to epi-THS by Akr I-III, described herein, the following assay was performed. An assay buffer was prepared containing 40 ppm DON, 1 mM NADPH in Teorell Stenhagen (TS) buffer, pH 6.0 (Östling and Virtama, Acta Physiologica Scandinavica, 1946, 11:4, 289-293). Tubes containing the assay buffer were transferred in a heating block at 30° C. The reaction was started by addition of Akr I-III to a final concentration of 200 nM in a final reaction volume of 200 μL. Samples were taken before reaction start, and 2, 5, 10, 15 and 20 min after reaction start. DON transformation reactions in these samples were stopped by mixing with absolute methanol at a 1:2 ratio, followed by a 1:100 dilution with 40% methanol. The concentrations of DON and epi-THS in the samples were determined with liquid chromatography-mass spectrometry (LC-MS) on a Sciex 5500 triple quadrupole mass spectrometer coupled to Agilent 1290 series UHPLC system, using the following MS parameters: Acquisition duration: 4 min; Scan Type: MRM (MRM); Polarity: Negative; Ion Source: Turbo Spray.
The storage stability of Akr I-III at different pH values was tested by incubating 1 μM enzyme in TS buffer solutions with a pH of 3.0-10.0 for 4 h at 30° C. in standard 1.5 ml Eppendorf tubes. Every hour, a DON transformation assay was conducted as described in Example 3. The starting activity at time 0 min was set to 100% and the relative residual activities were determined throughout the incubation. For the DON transformation assays, 80 μl of the storage solution were added to an assay reaction with a final volume of 400 μl, which corresponds to a 1:5 dilution of the storage solution. Akr I retained more than 93% activity during 4 hours at 30° C. from pH 4.0-10.0. Akr II retained 30% to 93% activity during 4 hours at 30° C. from pH […] retained 27% to 85% activity during 4 hours at 30° C. from pH 4.0-9.0. Akr I-III retained more than 40% of their activity for 4 hours at 30° C. from pH 4.0 to pH 8.0.

[2] = type: biochemical; details: for pH of maximum DON degradation activity (pH optimum): pH 2 to pH 10 tested, 30° C.
Procedure: as §1
For LC, eluent A was 5% methanol, 94.9% water (ultrapure), 0.1% acetic acid, and eluent B was 99.9% methanol, 0.1% acetic acid, using a Phenomenex Kinetex 2.6 μm biphenyl 150×2.1 mm column, an injection volume of 1 μL and the protocol shown in Table 3.
By applying the DON transformation assay basically as described in Example 3, but at pH values ranging from pH 2 to pH 10, the pH optima for DON degradation of Akr I-III (SEQ ID NOs: 1-3) were determined. Akr I and Akr II reached maximum activities at pH 6.0, Akr III at pH 6.5.
By applying the DON transformation assay basically as described in Example 3, but at different temperatures ranging from 14.9° C. to 55.7° C., the temperature optima for the DON degradation activities of Akr I-III were determined. Akr I maximum activity was shown at approximately 35° C., Akr II at approximately 31° C., and Akr III at temperatures from approximately 28° C. to 33° C. (see FIG. 4). […] For Akr I even at temperatures below 20° C.

[3] = pH 3.0, 0 h (starting activity set to 100%)
[4] = pH 4.0, 0 h (starting activity set to 100%)
[5] = pH 5.0, 0 h (starting activity set to 100%)
[6] = pH 6.0, 0 h (starting activity set to 100%)
[7] = pH 7.0.0, 0 h (starting activity set to 100%)
[8] = pH 8.0, 0 h (starting activity set to 100%)
[9] = pH 9.0.0, 0 h (starting activity set to 100%)
[10] = pH 10.0, 0 h (starting activity set to 100%)

B1: Akr II: artificial amino acid sequence, variant of a wild type aldo-keto reductase (protein)
chain: MRTTEIAQGLKVSNLCIGAGPLGGMPTAFGYDVSEERGIATVQAVFDSPINFMDTSSEYGGSEARIGKVIREGLMPKGFVISSKADAEGEGVGRRGDFSAKQVRASFELSLERLGLTHLDVYFLHDPEKFPFEQVMARGGAMEELLRLKDEGLVGLVGVAGGDVLEMARYVDTGSLDILLNYGRYTLLDRSADSLITKVSDAGMAFLNAGPYASGLLAAPRGGSAWYQYAPPDATALQAVDQLHELCESFDVSLRSVALQFSMRDPRITSTVVGLSRPERVRALLDDEAAEIPAELWEQLPAPLNGDIVLPG
modifications: ArkII
Relative DON-transformation activity [1, 3]: 100.0%
Relative DON-transformation activity ([1]; pH 3.0, 1 h): 34.5%
Relative DON-transformation activity ([1]; pH 3.0, 2 h): 1.1%
Relative DON-transformation activity ([1]; pH 3.0, 3 h): 0.0%
Relative DON-transformation activity ([1]; pH 3.0, 4 h): 0.0%
Relative DON-transformation activity [1, 4]: 100.0%
Relative DON-transformation activity ([1]; pH 4.0, 1 h): 99.3%
Relative DON-transformation activity ([1]; pH 4.0, 2 h): 96.6%
Relative DON-transformation activity ([1]; pH 4.0, 3 h): 87.1%
Relative DON-transformation activity ([1]; pH 4.0, 4 h): 89.0%
Relative DON-transformation activity [1, 5]: 100.0%
Relative DON-transformation activity ([1]; pH 5.0, 1 h): 100.1%
Relative DON-transformation activity ([1]; pH 5.0, 2 h): 99.8%
Relative DON-transformation activity ([1]; pH 5.0, 3 h): 99.3%
Relative DON-transformation activity ([1]; pH 5.0, 4 h): 92.4%
Relative DON-transformation activity [1, 6]: 100.0%
Relative DON-transformation activity ([1]; pH 6.0, 1 h): 77.3%
Relative DON-transformation activity ([1]; pH 6.0, 2 h): 85.1%
Relative DON-transformation activity ([1]; pH 6.0, 3 h): 77.6%
Relative DON-transformation activity ([1]; pH 6.0, 4 h): 61.8%
Relative DON-transformation activity [1, 7]: 100.0%
Relative DON-transformation activity ([1]; pH 7.0.0, 1 h): 79.6%
Relative DON-transformation activity ([1]; pH 7.0.0, 2 h): 64.5%
Relative DON-transformation activity ([1]; pH 7.0.0, 3 h): 56.9%
Relative DON-transformation activity ([1]; pH 7.0.0, 4 h): 57.4%
Relative DON-transformation activity [1, 8]: 100.0%
Relative DON-transformation activity ([1]; pH 8.0, 1 h): 85.1%
Relative DON-transformation activity ([1]; pH 8.0, 2 h): 68.3%
Relative DON-transformation activity ([1]; pH 8.0, 3 h): 53.2%
Relative DON-transformation activity ([1]; pH 8.0, 4 h): 40.9%
Relative DON-transformation activity [1, 9]: 100.0%
Relative DON-transformation activity ([1]; pH 9.0.0, 1 h): 76.5%
Relative DON-transformation activity ([1]; pH 9.0.0, 2 h): 54.7%
Relative DON-transformation activity ([1]; pH 9.0.0, 3 h): 36.1%
Relative DON-transformation activity ([1]; pH 9.0.0, 4 h): 29.9%
Relative DON-transformation activity [1, 10]: 100.0%
Relative DON-transformation activity ([1]; pH 10.0, 1 h): 54.4%
Relative DON-transformation activity ([1]; pH 10.0, 2 h): 37.7%
Relative DON-transformation activity ([1]; pH 10.0, 3 h): 13.9%
Relative DON-transformation activity ([1]; pH 10.0, 4 h): 7.2%
temperature of maximum DON degradation activity (temperature optimum) ([2]; 14.9° C. to 55.7° C. tested): approximately 31 °C
pH of maximum DON degradation activity (pH optimum) [2]: 6.0

B2: Akr III: artificial amino acid sequence, variant of a wild type aldo-keto reductase (protein)
chain: MRTTEIAQGLKVSNLCIGAGPLGGMPTAFGYDVSEERGIATVQAVFDSPINFMDTSSEYGGSEARIGKVIREGRMPKGFVISSKADAEGEGVGRRGDFSAKQVRASFELSLERLGLTHLDVYFLHDPEKFPFEQVMARGGAMEELLRLKDEGLVGLVGVAGGDVLEMARYVDTGSLDILLNYGRYTILDRSADSLITKVSDAGMAFLNAGPYASGLLAAPRGGSAWYQYAPPDATALQAVDQLHELCESFDVSLRSVALQFSMRDPRITSTVVGLSRPERVRALLDDEAAEIPAELWEQLPAPLNGDIVLPR
modifications: ArkIII
Relative DON-transformation activity [1, 3]: 100.0%
Relative DON-transformation activity ([1]; pH 3.0, 1 h): 13.5%
Relative DON-transformation activity ([1]; pH 3.0, 2 h): 19.3%
Relative DON-transformation activity ([1]; pH 3.0, 3 h): 0.0%
Relative DON-transformation activity ([1]; pH 3.0, 4 h): 0.0%
Relative DON-transformation activity [1, 4]: 100.0%
Relative DON-transformation activity ([1]; pH 4.0, 1 h): 95.1%
Relative DON-transformation activity ([1]; pH 4.0, 2 h): 84.4%
Relative DON-transformation activity ([1]; pH 4.0, 3 h): 74.8%
Relative DON-transformation activity ([1]; pH 4.0, 4 h): 57.7%
Relative DON-transformation activity [1, 5]: 100.0%
Relative DON-transformation activity ([1]; pH 5.0, 1 h): 97.7%
Relative DON-transformation activity ([1]; pH 5.0, 2 h): 96.3%
Relative DON-transformation activity ([1]; pH 5.0, 3 h): 90.7%
Relative DON-transformation activity ([1]; pH 5.0, 4 h): 85.2%
Relative DON-transformation activity [1, 6]: 100.0%
Relative DON-transformation activity ([1]; pH 6.0, 1 h): 97.8%
Relative DON-transformation activity ([1]; pH 6.0, 2 h): 94.9%
Relative DON-transformation activity ([1]; pH 6.0, 3 h): 93.1%
Relative DON-transformation activity ([1]; pH 6.0, 4 h): 78.9%
Relative DON-transformation activity [1, 7]: 100.0%
Relative DON-transformation activity ([1]; pH 7.0.0, 1 h): 93.0%
Relative DON-transformation activity ([1]; pH 7.0.0, 2 h): 91.3%
Relative DON-transformation activity ([1]; pH 7.0.0, 3 h): 85.1%
Relative DON-transformation activity ([1]; pH 7.0.0, 4 h): 74.0%
Relative DON-transformation activity [1, 8]: 100.0%
Relative DON-transformation activity ([1]; pH 8.0, 1 h): 94.2%
Relative DON-transformation activity ([1]; pH 8.0, 2 h): 77.9%
Relative DON-transformation activity ([1]; pH 8.0, 3 h): 69.0%
Relative DON-transformation activity ([1]; pH 8.0, 4 h): 57.6%
Relative DON-transformation activity [1, 9]: 100.0%
Relative DON-transformation activity ([1]; pH 9.0.0, 1 h): 76.3%
Relative DON-transformation activity ([1]; pH 9.0.0, 2 h): 61.3%
Relative DON-transformation activity ([1]; pH 9.0.0, 3 h): 54.1%
Relative DON-transformation activity ([1]; pH 9.0.0, 4 h): 27.4%
Relative DON-transformation activity [1, 10]: 100.0%
Relative DON-transformation activity ([1]; pH 10.0, 1 h): 47.0%
Relative DON-transformation activity ([1]; pH 10.0, 2 h): 27.1%
Relative DON-transformation activity ([1]; pH 10.0, 3 h): 17.0%
Relative DON-transformation activity ([1]; pH 10.0, 4 h): 15.4%
pH of maximum DON degradation activity (pH optimum) [2]: 6.5
